Experimental findings from patent US20240400670A1 (JIANGSU HENGRUI PHARMACEUTICALS, published 2024) are described below.

Test [1] concerns the target T1, human IL-23 (Sino Biological, CT048-H08H) (human, UniProt Q9NPF7 20-189; P29460 23-328).
T1 sequence (looked up) 1: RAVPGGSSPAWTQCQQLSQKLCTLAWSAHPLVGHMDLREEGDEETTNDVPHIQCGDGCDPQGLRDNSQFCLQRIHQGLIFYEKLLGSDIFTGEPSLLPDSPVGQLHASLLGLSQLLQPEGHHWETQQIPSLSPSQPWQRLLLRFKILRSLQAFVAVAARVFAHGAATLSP
T1 sequence (looked up) 2: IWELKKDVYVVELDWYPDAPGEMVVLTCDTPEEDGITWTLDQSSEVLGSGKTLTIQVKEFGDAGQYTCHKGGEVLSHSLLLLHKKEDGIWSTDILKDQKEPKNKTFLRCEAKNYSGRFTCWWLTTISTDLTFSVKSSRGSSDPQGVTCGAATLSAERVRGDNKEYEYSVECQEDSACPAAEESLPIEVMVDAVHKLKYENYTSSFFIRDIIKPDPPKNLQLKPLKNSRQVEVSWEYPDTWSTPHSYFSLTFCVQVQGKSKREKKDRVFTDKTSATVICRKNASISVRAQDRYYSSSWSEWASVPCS
Put plainly: cell-based or functional assay.

Test [2] has as its target T1, human IL-23 (Sino Biological, …). Put plainly: SPR (Biacore), Protein A capture of sample, 1:1 model. As for the experimental part:
(§1) A certain amount of test sample was subjected to affinity capture by a biosensor chip Protein A (GE, 29127556), and then antigens at a series of concentration gradients were allowed to flow on the surface of the chip. The reaction signals were detected in real time by using Biacore (GE, 8 K) to obtain association and dissociation curves. After the dissociation was completed for each cycle, the biochip was washed and regenerated with a 10 mM glycine-hydrochloric acid solution at pH 1.5 (GE, BR-1003-54). Fitting was performed based on the experimental data using BlAevaluation version 4.1 software with a 1:1 model, and affinity values were obtained.

The target is the same in test [3]. Nature of the test: competition ELISA, blocks IL-23/IL-23R; IL-23R coated, biotin-IL-23 + sample gradient. The protocol:
(§2) The specific procedures are as follows:
The receptor protein was diluted to 2 μg/mL with a PBS (BasalMedia, B320) buffer at pH 7.4 and added to a 96-well microplate (Corning, 3590) at 100 μL/well. The plate was incubated at 4° C. overnight. After the liquid was discarded, 1 % Casein blocking solution (Thermo, 37528) was added at 200 μL/well for blocking, and the plate was incubated at 37° C. for 2 h. After the blocking was complete, the blocking solution was discarded, and the plate was washed 3 times with a PBST buffer (pH 7.4 PBS containing 0.1 % tween-20) for later use. After the biotin-labeled ligand protein at a fixed concentration was mixed with an antibody or fusion protein diluted in a gradient, the mixture was pre-incubated at 37° C. for 30 min and then added to the blocked microplate. The plate was incubated at 37° C. for 1.5 h. After the incubation was complete, the plate was washed 3 times with PBST. Streptavidin-HRP (Invitrogen, 434323, diluted at 1:4000) was added at 100 μL/well, and the plate was incubated at 37° C. for 1 h. The supernatant was removed. After the plate was washed 3 times with PBST, TMB chromogenic substrate (KPL, 5120-0077) was added at 100 μL/well, and the plate was incubated at room temperature for 10⁻¹⁵ min. 1 M H₂SO₄ was added at 50 μL/well to terminate the reaction. The absorbance values at 450 nm were taken using a microplate reader. Curves for the inhibition of binding of the ligands to the receptors were fitted using software, and the IC₅₀ values were calculated.

For test [4], the target named is T2, mouse IL-23 (R&D Systems, 1887-ML/CF) (mouse, UniProt Q9EQ14 22-196; P43432 23-335).
T2 construct: also called Mouse IL-23 p19
T2 sequence (looked up) 1: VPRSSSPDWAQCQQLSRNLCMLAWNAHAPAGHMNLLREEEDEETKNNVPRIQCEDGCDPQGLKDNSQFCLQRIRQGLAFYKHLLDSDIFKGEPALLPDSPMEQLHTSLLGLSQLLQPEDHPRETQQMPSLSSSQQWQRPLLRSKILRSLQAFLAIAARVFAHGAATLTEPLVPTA
T2 sequence (looked up) 2: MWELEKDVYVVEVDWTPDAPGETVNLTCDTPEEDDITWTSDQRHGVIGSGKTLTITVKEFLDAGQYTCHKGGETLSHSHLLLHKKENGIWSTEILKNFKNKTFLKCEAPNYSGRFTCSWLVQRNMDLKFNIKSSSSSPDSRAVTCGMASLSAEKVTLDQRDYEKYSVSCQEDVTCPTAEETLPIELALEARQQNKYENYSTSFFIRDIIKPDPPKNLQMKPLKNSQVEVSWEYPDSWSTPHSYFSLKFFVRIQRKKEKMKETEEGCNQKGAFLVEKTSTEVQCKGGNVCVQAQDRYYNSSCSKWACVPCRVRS
Nature of the test: SPR (Biacore), Protein A capture of sample. Background: Surface plasmon resonance follows binding to a sensor surface in real time, without labels.

Test [5] concerns the target T1, human IL-23 (Sino Biological, …). Put plainly: ELISA, sample coated, IL-23 titrated, anti-His-HRP. The protocol: as §2
The test sample was diluted to 2 μg/mL with a PBS (BasalMedia, B320) buffer at pH 7.4 and added to a 96-well microplate (Coming, 3590) at 100 μL/well. The plate was incubated at 4° C. overnight. After the liquid was discarded, 5 % skim milk (BD, 232100) diluted with PBS was added at 300 μL/well for blocking, and the mixture was incubated at 37° C. for 2 h. After the blocking was completed, the blocking solution was discarded, and the plate was washed 3 times with a PBST buffer (pH 7.4, PBS containing 0.1 % tween-20). […] After the incubation, the plate was washed 3 times with PBST. […] After the plate was washed 3 times with PBST, a TMB chromogenic substrate (KPL, 5120-0077) was added at 100 μL/well, and the mixture was incubated at room temperature for 10⁻¹⁵ min, and then 1 M H₂SO₄ was added at 50 μL/well to terminate the reaction. The absorbance values at 450 nm were taken using a microplate reader. The binding curves of antibodies to antigens were fitted using software, and the EC₅₀ values were calculated.
(In general: ELISA stands for enzyme-linked immunosorbent assay.)

Test [6] addresses cynomolgus monkey IL-23 (Acro Biosystems, ILB-CM52W8) (cynomolgus monkey, UniProt H6WS56 20-189). Nature of the test: SPR (Biacore), Protein A capture of sample, 1:1 model. As for the experimental part:
as §1

Test [7] has as its target T1, human IL-23 (Sino Biological, …). Nature of the test: cell-based or functional assay. This is another data set of the same source.

Read-outs that look alike come from different tables or passages of the source.

B1: Hu38-2 (antibody, human IgG1, kappa, L234A L235A, V domains shown)
VH: EFQLVQSGAEVKKPGASVKVSCKASGYTFTDHNMNWVRQAPGQRLEWMGVINPNYGTTTYNQKFKGRVTITVDTSASTAYMELSSLRSEDTAVYYCARRGFAYWGQGTLVTVSS
VL: DIVMTQTPLSLPVTPGEPASISCRSSKSLLYKDGKTYLNWFLQKPGQSPQLLIYLMSTRASGVPDRFSGSGSGTDLTLKISRVEAEDVGVYYCQQIAEYPFTFGSGTKLEIKR
notes: humanized mAb38, IgG1/kappa
For the molecule B1, in test [1], the “Activity in inhibiting proliferation of BaF3-IL-23R cells (IC50, nM)” value (from here on “Activity in inhibiting proliferation”) stood at 0.138 nM. Besides, in test [2], the Kd was found to be 0.18 nM, the koff was 6.05e-05 s⁻¹ and the kon came to 337000 M⁻¹ s⁻¹. Further, in test [3], the IC50 was found to be 0.465 nM.

B2: Hu38-5 (antibody, human IgG1, kappa, L234A L235A, V domains shown)
VH: EVQLVQSGAEVKKPGASVKVSCKASGYSFTDHNMNWVRQAPGQRLEWMGVINPNYGTTTYNQKFKGRVTITVDTSASTAYMELSSLRSEDTAVYYCARRGFAYWGQGTLVTVSS
VL: DIVMTQTPLSLPVTPGEPASISCRSSKSLLYKDGKTYLNWYLQKPGQSPQLLIYLMSTRASGVPDRFSGSGSGTDFTLKISRVEAEDVGVYYCQQIAEYPFTFGSGTKLEIKR
notes: humanized mAb38, IgG1/kappa
For the molecule B2, in test [1], the “Activity in inhibiting proliferation” value was 0.148 nM. Further, in test [2], the Kd was 0.277 nM, the off-rate (koff) is 5.82e-05 s⁻¹ and the kon is 210000 M⁻¹ s⁻¹. The half-maximal inhibitory concentration (IC50) in test [3] was 0.228 nM.

B3: Hu38-9 (antibody, human IgG1, kappa, L234A L235A, V domains shown)
VH: EFQLVQSGAEVKKPGASVKVSCKASGYSFTDHNMNWVRQAPGQRLEWMGVINPNYGTTTYNQKFKGRVTITVDQSASTAYMELSSLRSEDTAVYYCARRGFAYWGQGTLVTVSS
VL: DIVMTQTPLSLPVTPGEPASISCRSSKSLLYKDGKTYLNWYLQKPGQSPQLLIYLMSTRASGVPDRFSGSGSGTDFTLKISRVEAEDVGVYYCQQIAEYPFTFGSGTKLEIKR
notes: humanized mAb38, IgG1/kappa
For the molecule B3, the “Activity in inhibiting proliferation” value in test [1] turned out to be 0.198 nM. In test [2], this molecule returned an equilibrium dissociation constant (Kd) of 0.283 nM, a dissociation rate constant (koff) of 6.68e-05 s⁻¹ and a kon of 236000 M⁻¹ s⁻¹. Also, the IC50 in test [3] turned out to be 0.496 nM.

B4: Hu38-13 (antibody, human IgG1, kappa, L234A L235A, V domains shown)
VH: EFQLVQSGAEVKKPGASVKVSCKASGYSFTDHNMNWVRQAPGQSLEWMGVINPNYGTTTYNQKFKGRVTITVDQSASTAYMELSSLRSEDTAVYYCARRGFAYWGQGTLVTVSS
VL: DIVMTQTPLSLPVTPGEPASISCRSSKSLLYKDGKTYLNWYLQKPGQSPQLLIYLMSTRASGVPDRFSGSGSGTDFTLKISRVEAEDVGVYYCQQIAEYPFTFGSGTKLEIKR
notes: humanized mAb38, IgG1/kappa
As to B4, in test [1], the “Activity in inhibiting proliferation” value came out at 0.187 nM. For the same molecule, in test [2], the equilibrium dissociation constant (Kd) was 0.27 nM, the koff stood at 5.56e-05 s⁻¹ and the kon was 206000 M⁻¹ s⁻¹. Also, the IC50 in test [3] amounted to 0.455 nM.

B5: Hu38-4 (antibody, human IgG1, kappa, L234A L235A, V domains shown)
VH: EFQLVQSGAEVKKPGASVKVSCKASGYTFTDHNMNWVRQAPGQRLEWMGVINPNYGTTTYNQKFKGRVTITVDTSASTAYMELSSLRSEDTAVYYCARRGFAYWGQGTLVTVSS
VL: DIVMTQTPLSLPVTPGEPASISCRSSKSLLYKDGKTYLNWFLQKPGQSPQLLIYLMQTRASGVPDRFSGSGSGTDLTLKISRVEAEDVGVYYCQQIAEYPFTFGSGTKLEIKR
notes: humanized mAb38, IgG1/kappa
With B5, the “Activity in inhibiting proliferation” value in test [1] was determined as 0.122 nM. In addition, in test [4], the binding result is recorded as “no binding”. This molecule yielded an EC50 in test [5] of 1.88 nM. In addition, in test [6], the affinity, expressed as Kd, was 0.0768 nM; the dissociation rate constant (koff) was 3.09e-05 s⁻¹; the kon came to 402000 M⁻¹ s⁻¹. In test [2], this molecule displayed a Kd of 0.196 nM, a koff of 6.92e-05 s⁻¹ and a kon of 353000 M⁻¹ s⁻¹. In test [3], the IC50 amounted to 0.427 nM.

B6: Ch38 (antibody, human IgG1, kappa, L234A L235A, V domains shown)
VH: EFQLQQSGPELVKPGASVKISCKASGYSFTDHNMNWVKQSNGKSLEWIGVINPNYGTTTYNQKFKGKATLTVDQSSSTAYMQLNILTSEDSAVYYCARRGFAYWGQGTLVTVSA
VL: DIVISQDELSNPVTSGESVSISCRSSKSLLYKDGKTYLNWFLQRPGQSPQLLIYLMSTRASGVSDRFSGSGSGTDLTLEISRVKAEDVGVYYCQQIAEYPFTFGSGTKLEIKR
notes: chimeric: murine variable regions on hIgG1/hkappa; also called chimeric antibody of mAb38
With B6, the “Activity in inhibiting proliferation” value in test [7] was 0.222 nM. The molecule also gave a 50% effective concentration (EC50) in test [5] of 1.83 nM. In test [2], this molecule gave a Kd of 0.0901 nM, a koff of 5.65e-05 s⁻¹ and an association rate constant (kon) of 627000 M⁻¹ s⁻¹. Further, the IC50 in test [3] came out at 0.361 nM.

B7: Ch29 (antibody, human IgG1, kappa, L234A L235A, V domains shown)
VH: QVQLKESGPGLVAPSQSLSITCTVSGFSLTSYAISWVRQPPGKGLEWLGVIWTGGGTNYNSGIKSRLTISKDNSKSQVFLNMNSLQTEDTARYYCVREGDYGSYAGAMDYWGQGTSVTVSS
VL: DIVLTQSPASLAVSLGQRATISCRASESVDYYGISSMHWFQQKPGQPPKLLIYRASNLESGIPARFSGSGSRTDFTLTINRVETDDVATYYCQQANKDPYTFGGGTKLEIKR
notes: chimeric: murine variable regions on hIgG1/hkappa; also called chimeric antibody of mAb29
With B7, the “Activity in inhibiting proliferation” value in test [7] stood at 0.175 nM. In test [5], this molecule came in with a concentration giving a half-maximal response (EC50) of 1.16 nM. In test [2], this molecule yielded a dissociation constant Kd of 0.0207 nM, an off-rate constant (koff) of 8.4e-05 s⁻¹ and a kon of 4.05e+06 M⁻¹ s⁻¹. Moreover, the IC50 in test [3] stood at 0.386 nM.

For orientation: Kd means a measure of binding affinity in units of concentration. By koff is commonly meant the first-order rate constant of dissociation. For orientation: kon means the rate constant with which the complex forms. What is called IC50 is the point on the concentration scale where inhibition reaches its midpoint. One may read the EC50 as the concentration giving half of the maximal effect.
